Results as given in IntAct's records for PubMed 19524571.

B1: Cyclin-dependent kinase 14 (Homo sapiens), O94921 (parent)
chain: MCDLIEPQPAEKIGKMKKLRRTLSESFSRIALKKDDTTFDEICVTKMSTRNCQGMDSVIKPLDTIPEDKKVRVQRTQSTFDPFEKPANQVKRVHSENNACINFKTSSTGKESPKVRRHSSPSSPTSPKFGKADSYEKLEKLGEGSYATVYKGKSKVNGKLVALKVIRLQEEEGTPFTAIREASLLKGLKHANIVLLHDIIHTKETLTLVFEYVHTDLCQYMDKHPGGLHPDNVKLFLFQLLRGLSYIHQRYILHRDLKPQNLLISDTGELKLADFGLARAKSVPSHTYSNEVVTLWYRPPDVLLGSTEYSTCLDMWGVGCIFVEMIQGVAAFPGMKDIQDQLERIFLVLGTPNEDTWPGVHSLPHFKPERFTLYSSKNLRQAWNKLSYVNHAEDLASKLLQCSPKNRLSAQAALSHEYFSDLPPRLWELTDMSSIFTVPNVRLQPEAGESMRAFGKNNSYGKSLSNSKH

Variants of: B1
Details: with ccny_human CCNY

effect of a mutation on the interaction	Variant
decreasing interaction strength	MCDLIEPQPAEKIGKMKKLRRTLSESFSRIALKKDDTTFDEICVTKMSTRNCQGMDSVIKPLDTIPEDKKVRVQRTQSTFDPFEKPANQVKRVHSENNACINFKTSSTGKESPKVRRHSSPSSPTSPKFGKADSYEKLEKLGEGSYATVYKGKSKVNGKLVALRVIRLQEEEGTPFTAIREASLLKGLKHANIVLLHDIIHTKETLTLVFEYVHTDLCQYMDKHPGGLHPDNVKLFLFQLLRGLSYIHQRYILHRDLKPQNLLISDTGELKLADFGLARAKSVPSHTYSNEVVTLWYRPPDVLLGSTEYSTCLDMWGVGCIFVEMIQGVAAFPGMKDIQDQLERIFLVLGTPNEDTWPGVHSLPHFKPERFTLYSSKNLRQAWNKLSYVNHAEDLASKLLQCSPKNRLSAQAALSHEYFSDLPPRLWELTDMSSIFTVPNVRLQPEAGESMRAFGKNNSYGKSLSNSKH [K164R]
